US20250032630A1, “B7H4 ANTIBODY-DRUG CONJUGATE AND USE THEREOF” (Duality Biologics (Suzhou) Co., Ltd., priority 2022, published 2025)

Assays:
human ICOSLG (B7-H2) = biological target: T1, human ICOSLG (B7-H2) (human, UniProt O75144 19-302); assay: flow cytometry on HEK293T cells stably expressing the human protein, one concentration
T1 construct: whole, on cells
T1 sequence (looked up): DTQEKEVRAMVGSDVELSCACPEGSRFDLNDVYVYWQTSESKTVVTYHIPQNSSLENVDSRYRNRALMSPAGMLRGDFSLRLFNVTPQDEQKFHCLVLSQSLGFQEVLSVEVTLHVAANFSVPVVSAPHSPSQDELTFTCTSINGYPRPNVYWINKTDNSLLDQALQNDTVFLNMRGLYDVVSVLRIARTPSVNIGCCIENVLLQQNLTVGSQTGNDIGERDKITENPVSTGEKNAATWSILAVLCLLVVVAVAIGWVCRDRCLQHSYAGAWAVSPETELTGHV

cynomolgus monkey B7H4 = biological target: T2, cynomolgus monkey B7H4 (cynomolgus monkey, UniProt A0A2K5U6P5 25-282); assay: flow cytometry on cynomolgus monkey B7H4-transfected HEK293T cells, PE anti-human IgG Fc secondary antibody
T2 construct: whole, on cells; also called Monkey B7H4-293T
T2 sequence: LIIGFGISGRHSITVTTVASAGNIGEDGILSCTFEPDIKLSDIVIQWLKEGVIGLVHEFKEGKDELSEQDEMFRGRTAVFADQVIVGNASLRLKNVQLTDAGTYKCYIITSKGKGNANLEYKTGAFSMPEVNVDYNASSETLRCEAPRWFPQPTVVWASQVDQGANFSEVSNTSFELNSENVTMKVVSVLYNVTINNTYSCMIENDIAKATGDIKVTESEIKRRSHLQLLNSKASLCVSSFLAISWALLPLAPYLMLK

human B7-H7 (HHLA2) = biological target: T3, human B7-H7 (HHLA2) (human, UniProt Q9UM44 23-414); assay: flow cytometry on CHO-KI cells stably expressing human B7-H7 (HHLA2), one concentration
T3 construct: whole, on cells
T3 sequence (looked up): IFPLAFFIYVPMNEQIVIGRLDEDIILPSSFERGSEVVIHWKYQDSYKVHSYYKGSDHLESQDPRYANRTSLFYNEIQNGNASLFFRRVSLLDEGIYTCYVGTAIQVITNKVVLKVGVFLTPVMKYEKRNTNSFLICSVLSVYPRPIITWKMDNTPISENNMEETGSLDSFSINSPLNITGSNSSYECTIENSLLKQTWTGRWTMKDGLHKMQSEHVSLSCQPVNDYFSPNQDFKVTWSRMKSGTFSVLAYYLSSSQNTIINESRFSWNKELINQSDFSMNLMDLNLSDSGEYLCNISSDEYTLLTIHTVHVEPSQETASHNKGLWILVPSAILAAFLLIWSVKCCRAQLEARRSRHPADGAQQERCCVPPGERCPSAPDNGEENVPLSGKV

B1: antibody-drug conjugate DB1001-X2 (antibody, DAR 5.4, V domains shown)
VH: QVQLVESGGGVVQPGRSLRLSCAASGFTFRSFGMHWVRQAPGKGLEWVAVISYDASNEYYADSVKGRFIISRDNSKDTLYLQMNSLRAGDTAVYYCAKGGALRWYFAYWGQGTLVTVSS
VL: EIVMTQSPATLSVSPGERATLSCRASQSISSNLGWYQQKPGQAPRLLIYGASTRATGIPARFSGSGSGTEFTLTISSLQSEDFAVYYCQQYRSWPPLTFGGGTKVEIKR
modifications: linker-cytotoxin X2 (payload P-III-30) coupled after TCEP reduction of the antibody; drug-to-antibody ratio (DAR) of 5.4; conjugation residues not stated
notes: also called anti-B7H4 ADC DB1001-X2
binding result (human ICOSLG (B7-H2)): no binding (tested: 100 nM or 300 nM)
EC50 (cynomolgus monkey B7H4): 5.36 nM
binding result (human B7-H7 (HHLA2)): no binding (tested: 100 nM or 300 nM)
